According to PMC9213077:

Target: Fcγ receptors on THP-1 cells (human (endogenous in THP-1)) (UniProt P12314)
Experiment: retention of opsonized erythrocytes on adherent THP-1 cells

UniProt P12314, sequence (P12314 16-374): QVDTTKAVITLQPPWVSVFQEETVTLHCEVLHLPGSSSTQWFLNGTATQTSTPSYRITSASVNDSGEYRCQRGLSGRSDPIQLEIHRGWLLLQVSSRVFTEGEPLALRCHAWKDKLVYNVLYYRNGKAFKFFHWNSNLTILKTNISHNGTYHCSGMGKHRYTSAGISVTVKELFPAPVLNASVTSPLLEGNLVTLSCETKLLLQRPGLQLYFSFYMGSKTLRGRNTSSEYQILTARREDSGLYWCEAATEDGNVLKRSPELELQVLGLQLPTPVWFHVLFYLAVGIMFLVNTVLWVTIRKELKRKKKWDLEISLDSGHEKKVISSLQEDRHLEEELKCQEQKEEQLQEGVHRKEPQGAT

concentration at which erythrocyte retention occurred [µg/mL]	Substance
0.6	rabbit antihuman erythrocyte antibody (Rockland; 209-4139), intact IgG
5	single-cleaved rabbit antihuman erythrocyte IgG generated by imlifidase (antibody)
